Columns and labels:
[1] = target: T1, IRTA3, full-length, on transfected 293T cells (human, UniProt Q96P31 18-734); assay: FACS on transfected 293T (summary with IRTA-Fc ELISA, FIG. 2A and B)
T1 sequence: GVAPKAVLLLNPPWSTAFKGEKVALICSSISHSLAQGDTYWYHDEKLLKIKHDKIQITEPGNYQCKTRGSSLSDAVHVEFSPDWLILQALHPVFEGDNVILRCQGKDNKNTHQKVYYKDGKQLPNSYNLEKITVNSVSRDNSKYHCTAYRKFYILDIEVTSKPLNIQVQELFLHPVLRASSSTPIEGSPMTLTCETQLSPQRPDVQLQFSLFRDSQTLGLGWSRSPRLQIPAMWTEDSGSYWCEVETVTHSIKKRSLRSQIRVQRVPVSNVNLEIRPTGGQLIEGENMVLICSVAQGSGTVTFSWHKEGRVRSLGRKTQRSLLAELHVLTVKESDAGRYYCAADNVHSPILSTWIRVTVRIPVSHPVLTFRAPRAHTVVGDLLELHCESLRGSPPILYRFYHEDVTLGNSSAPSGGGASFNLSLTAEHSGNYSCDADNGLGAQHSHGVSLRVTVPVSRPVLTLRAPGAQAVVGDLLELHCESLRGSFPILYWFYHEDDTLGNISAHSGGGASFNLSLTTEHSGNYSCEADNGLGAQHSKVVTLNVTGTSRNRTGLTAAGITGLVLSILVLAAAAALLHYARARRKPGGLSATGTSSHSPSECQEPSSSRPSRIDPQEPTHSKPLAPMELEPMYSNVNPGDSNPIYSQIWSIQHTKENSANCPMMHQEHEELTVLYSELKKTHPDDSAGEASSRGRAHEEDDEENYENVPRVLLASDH
Method: FIGS. 2A-B are a bar graph and a set of plots showing the cross-reactivity of the anti-IRTA2 MAbs to other IRTA family members. FIG. 2A is a bar graph of the results from an ELISA of anti-IRTA2 MAbs to various Fc-fusion proteins. Each Fc-fusion protein indicated on the top of the column was captured on ELISA plates using secondary antibody (goat anti-human IgG). After washing, 100 ng/50 μl/well of MAbs were added, followed by HRP-labeled goat anti-mouse IgG and TMBZ substrate. The signals in ELISA were normalized for the amounts of each Fc-fusion protein on the plates using HRP-goat anti-human Fc. The controls are MAbs 9E10 (anti-myc tag, IgG1), BerH2 (anti-CD30, IgG1), T408 (anti-CD30, IgG2a), T420 (anti-CD30, IgG2b) and HRP-goat anti-human Fc (1/2400 dilution). […] Two days after transfection, the cells were harvested and incubated with 200 ng/100 μl of each MAb, followed by PE-conjugated goat anti-mouse IgG F(ab′)2. […] In the positive control panels, the MAbs cross-reactive to other IRTAs were used. They are F26 (anti-IRTA1 and anti-IRTA2, IgG2b), F109 (anti-IRTA3, IgG2b), F47 (anti-IRTA4, IgG2a), and F69 (anti-IRTA5, IgG2a). BerH2 (anti-CD30, IgG1) was also used. “+” indicates more than 1.5-fold than that of the control; “++” indicates more than 10-fold mean fluorescence intensity than that of the negative control.

[2] = target: T2, IRTA2 extracellular domain-Fc fusion protein (human, UniProt Q96RD9 16-851); assay: equilibrium ELISA (Friguet)
T2 construct: extracellular domain; also called IRTA2-Fc; IRTA2-HFc; not shown: human IgG1 hinge and Fc
T2 sequence (looked up): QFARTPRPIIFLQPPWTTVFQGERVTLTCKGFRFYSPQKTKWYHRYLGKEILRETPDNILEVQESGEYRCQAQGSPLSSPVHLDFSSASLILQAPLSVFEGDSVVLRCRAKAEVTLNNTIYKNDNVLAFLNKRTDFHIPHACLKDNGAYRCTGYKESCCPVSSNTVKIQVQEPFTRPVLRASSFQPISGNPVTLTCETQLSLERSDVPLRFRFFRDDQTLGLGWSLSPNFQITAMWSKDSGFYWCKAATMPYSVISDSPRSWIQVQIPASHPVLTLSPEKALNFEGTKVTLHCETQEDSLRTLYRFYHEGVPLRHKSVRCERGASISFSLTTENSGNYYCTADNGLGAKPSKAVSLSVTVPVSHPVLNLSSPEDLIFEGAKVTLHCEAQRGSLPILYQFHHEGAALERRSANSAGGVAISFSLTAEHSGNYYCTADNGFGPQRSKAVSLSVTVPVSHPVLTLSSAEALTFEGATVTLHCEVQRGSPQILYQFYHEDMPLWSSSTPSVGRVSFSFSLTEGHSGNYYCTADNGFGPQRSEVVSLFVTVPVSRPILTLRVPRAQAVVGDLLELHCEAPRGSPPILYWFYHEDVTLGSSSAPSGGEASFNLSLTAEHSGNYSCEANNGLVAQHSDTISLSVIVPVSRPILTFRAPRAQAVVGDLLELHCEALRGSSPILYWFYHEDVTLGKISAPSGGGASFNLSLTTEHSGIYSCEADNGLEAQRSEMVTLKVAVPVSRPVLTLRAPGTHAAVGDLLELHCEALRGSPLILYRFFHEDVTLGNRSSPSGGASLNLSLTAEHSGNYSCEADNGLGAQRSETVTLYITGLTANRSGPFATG
Method: ELISA. In a typical indirect ELISA for the screening of hybridomas, microtiter plates (MaxiSorp; Nalge Nunc, Rochester, N.Y.) were coated with 100 ng/50 μl/well of goat anti-human IgG in phosphate buffered saline (PBS) for 2 hours at room temperature. Next, 50 ng/100 μl/well of IRTA2-Fc in blocking buffer (25% DMEM, 5% FBS, 25 mM HEPES, 0.5% bovine serum albumin, 0.1% sodium azide in PBS) was added to each well and incubated for 2 hours at room temperature. After washing with PBS containing 0.05% Tween 20, 50 μl of the hybridoma supernatants were added and incubated for 2 hours at room temperature. After washing, the bound MAbs were detected by a 2-hour incubation with horseradish peroxidase (HRP)-labeled goat anti-mouse IgG (Jackson ImmunoResearch, Grove, Pa.) followed by tetramethylbenzidine (TMB) substrate kit (Pierce, Rockford, Ill.). In some experiments, other IRTA-Fc fusion proteins were used instead of IRTA2-Fc.
Affinity Determination. Affinities (dissociation constant, Kd) of the anti-IRTA2 MAbs to IRTA2-Fc were determined by ELISA as previously described (Friguet et al., J Immunol Methods 77:305-19, 1985). Briefly, each MAb was incubated with various concentrations of IRTA2-Fc at room temperature for 20 hours to reach equilibrium; then the amount of MAb that remains unbound at equilibrium was measured by the indirect ELISA as described above.

binding result [1]: no binding | Kd [2]: 1.2 nM
B1: F25 (antibody, IgG2a, V domains shown)
VH: EVQLQQSGPELVKPGTSVKMSCKASGYSFTGYFMNWMMQNHGKSLEWIGRINLYNGDTFYNQKFKDKATLTVDKSSNTVHMEFRSLASEDSAVYYCASSLYYFDYWGQGTTFTVSS
VL: DIVMTQSHKFMSTSVGDRVNITCKASQDVGTNVAWYQQKPGQSPKLLIYWASTRQTGVPDRFTGSGSGTDFTLTISNVQSEDLSDYFCQQYSSYPLTFGAGTKLELKR
notes: mouse hybridoma MAb, IgG2a, kappa; also called MAb F25; biotin-MAb F25
